What all share (assay): initial rates, colorimetric 2-naphthylamide release
Substrate in series [1]: C[C@H](N)C(=O)N[C@@H](CCCNC(=N)N)C(=O)Nc1ccc2ccccc2c1
It counts as biochemical, Physcomitrium patens. The conditions noted are these: 25 °C, pH 7.4, Tris-HCl (I = 0.01), 75 µM CoCl2, DPP III site.

Substrate in series [2]: N=C(N)NCCC[C@H](NC(=O)[C@@H](N)CCCNC(=N)N)C(=O)Nc1ccc2ccccc2c1
It counts as biochemical, Physcomitrium patens. The following applies: 25 °C, pH 7.4, Tris-HCl (I = 0.01), 75 µM CoCl2, DPP III site.

Substrate in series [3]: C[C@H](N)C(=O)N[C@@H](CCCNC(=N)N)C(=O)Nc1ccc2ccccc2c1
It counts as biochemical, Arabidopsis thaliana. The conditions noted are these: 25 °C, pH 7.9, Tris-HCl (I = 0.01), 75 µM CoCl2, DPP III site.

Substrate in series [4]: N=C(N)NCCC[C@H](NC(=O)[C@@H](N)CCCNC(=N)N)C(=O)Nc1ccc2ccccc2c1
Type of series: biochemical, Arabidopsis thaliana. The conditions noted are these: 25 °C, pH 7.9, Tris-HCl (I = 0.01), 75 µM CoCl2, DPP III site.

Substrate in series [5]: N=C(N)NCCC[C@H](NC(=O)[C@@H]1CCCN1)C(=O)Nc1ccc2ccccc2c1
Type of series: biochemical, Arabidopsis thaliana. The conditions noted are these: 25 °C, pH 7.9, Tris-HCl (I = 0.01), 75 µM CoCl2, DPP III site.

The results in this text go back to article PMC5606203.

B1: PpND (Physcomitrium patens) (protein)
chain: MEGFQEEFSLGECLDVLTAAGLRTGDVKKRHLVHADGDYHRAVHVWLFVESTQELVLQKRADCKDSWPGLWDISSAGHISAGDTSLLTARRELQEELGITLPADAFEFLFDYLQECVINGGKYINNEYNDVYLVTLVDHIPVEAFTLQETEVSAVKYMKWQDYEDAVRKEDSSYVPCDVDGGYSALFSALRRRYEVDTSAKLEELQMHINRYVPVEIHGETTGLSKGDLLALSDTIRAAKLLDRIFLEQEWATNPALKDSLQAASGKSELDRLKFAYYLINKSPWSILDENDAFLTTADSAIQIAEGAVDESVTWGGKVRYRAAFPVEKAPGANFYPVDMDKEEFQAWKDGLDKGQQADATSFFTTIRRSGDIHDADGAKVHDLKIVPYSKEYATILKEASYLLHKAGDSAENPSLKRLLKAKADAFLSNDYYESDIAWMELDSPLDVTIGPYETYEDGLFGYKATFEAFIGIRDDEATQRLKLFSHNLQEMEDNLPMDDEYKSKTVTFSPIRVIQLLYNSGDVKGPQTVAFNLPNDDRIVKERGTAMVMLKNISQAKFDYILLPIANVCVEASQRGAVDFDSFFTHTICHECCHGIGPHNIVTPDGRASTVRLELQEVYSAIEEAKADIVGLWALHFLVDKGLLPRSLENTMYVSFLAGCFRSIRFGLEEAHGKGQALQFNFILEKGGFSYHPDGTFSVDYTKVRQCVEDLSRLILTIEAKGDKAGAEALLAKYAALTPQLQQSFDALQDVQVPVDIFPTFKLLDDIKL
Turning to B1, in series [1], the Km (as a rule, the substrate concentration at which the rate is half of its maximum) is 17.21 ± 0.75 µM and the kcat – broadly, the maximal rate divided by the concentration of active sites – worked out at 0.0106 ± 0.00262 s⁻¹. Also, in series [2], the Km is on record as 10.63 ± 1.72 µM and the kcat is 0.0137 ± 0.003 s⁻¹.

B2: AtND (Arabidopsis thaliana) (protein)
chain: MAEEHFDVLTKSGEKTGVSKPRGEVHRDGDYHRAVHVWIFVETTQQLLLQLRSDDKDSWPGQWDISSAGHISAGDTSLLSAQRELEEELGVKLPKDAFEKIFVFLQECVTNDGKFINNEFNDVYLVTILHPIPLEAFTLQKEEVSAVKYVPYEEYRNFLSKEDPAYVPYDVNGEYGKLFDIIRQRCQVNTEARSLSLQKQLQRYSPVTLEAKLTELSEADQKALGLIVKAAKIMDDIFYEQVWNSNPALRDWLKDHANASKLDKLKWDYFTINKSPWSSLDENEAFLSTADSAVKLLPGATKAIAGWKGLEYRAAFPVTKPPGANFYPPDMDKMEFTLWLNGLTEEQKHAATGFFSVIKRRSEANLDASDHLASSTKKLPDSNSDLYSIPYSEIYRPFLKKASEFLQKAGDLVSSPSLKKLLHSKAEAFLSNEYYESDIAWMDLDSKLDITIGPYETYEDEIFGYKATFETFIGIRDDKATADLKLFGDNLKLLEDNLPLESVYKSTDVSAAPIRVIQLIYNSGDVKGPQTVAYNLPNDEKIVKDRGTSMVMLKNVQEAKFEHILKPIAEITISKEQRGLVDFDSFFTHTICHECCHGIGPHTITLPGGQTSTVRKELQEVHSAMEEAKADIVGLWALKFLITKGLLSKSMVESMYVSFLAGCFRSIRFGLTEAHGKGQALQFNYLYEKGAFVFHEDSTFSVDFAKIEGAVESLSHEILTIQGKGDKNAATLLLNKYCTITGPLKTALENLERVKVPVDISPTFPLAEALMN
Turning to B2, in series [3], the Km is 5.0 ± 0.3 µM; the kcat came to 0.0415 ± 0.0035 s⁻¹; the kcat/Km (in general, the turnover number divided by the Michaelis constant) was 8300 M⁻¹ s⁻¹. In series [4], the Km came to 3.25 ± 1.12 µM, the kcat turned out to be 0.002 ± 1.67e-05 s⁻¹ and the kcat/Km is 615 M⁻¹ s⁻¹. Further, in series [5], the Km worked out at 40.85 ± 12.09 µM, the kcat came to 0.0372 ± 0.005 s⁻¹ and the kcat/Km stood at 908 M⁻¹ s⁻¹.
